These results are taken from patent US20250179196A1 (Janssen / Centocor, published 2025).

Test [1] has as its target T1, rat IL-23R extracellular domain (ECD) protein (rat).
T1 construct: also called rat IL-23R ECD; F1LX96 amino acids 24-354
T1 chain: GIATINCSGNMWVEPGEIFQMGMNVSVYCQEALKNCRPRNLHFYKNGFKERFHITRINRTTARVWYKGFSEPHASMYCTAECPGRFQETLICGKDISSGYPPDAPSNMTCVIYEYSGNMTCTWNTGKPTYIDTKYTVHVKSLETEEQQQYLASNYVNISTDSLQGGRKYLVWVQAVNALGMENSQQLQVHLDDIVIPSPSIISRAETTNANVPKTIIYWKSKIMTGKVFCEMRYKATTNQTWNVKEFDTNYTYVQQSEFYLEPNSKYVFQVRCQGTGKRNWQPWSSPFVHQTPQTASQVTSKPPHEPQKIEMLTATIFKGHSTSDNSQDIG
The experiment in a line: SPR Biacore 8K, supernatant. In a few lines: (§1)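 mAbs captured (~150 RU) on Biacore 8K; human or rat IL-23R ECD injected at 0.8–500 nM (5-fold series) at 25 °C in HBS-P+ with 100 μg/ml BSA. Association 3 min at 50 μL/min, dissociation 30 min. Ka, Kd and KD from Langmuir 1:1 fit.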
On the technique in general: In SPR one partner is held on a chip, and binding of the other changes the refractive index at the surface.

The target of test [2] is T2, Recombinant human IL-23 receptor (IL-23R) extracellular domain (ECD) protein (human, UniProt Q5VWK5 24-355).
T2 construct: also called human IL-23R ECD; hu IL-23R ECD
T2 sequence: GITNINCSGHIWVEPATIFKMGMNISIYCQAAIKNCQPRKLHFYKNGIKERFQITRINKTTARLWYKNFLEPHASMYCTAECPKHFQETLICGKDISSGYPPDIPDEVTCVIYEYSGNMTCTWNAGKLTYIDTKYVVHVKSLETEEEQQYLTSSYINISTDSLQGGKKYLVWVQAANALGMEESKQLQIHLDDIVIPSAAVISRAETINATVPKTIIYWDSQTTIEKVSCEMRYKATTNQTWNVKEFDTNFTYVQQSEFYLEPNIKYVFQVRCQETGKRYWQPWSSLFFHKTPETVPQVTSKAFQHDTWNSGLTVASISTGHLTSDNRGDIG
The experiment in a line: SPR Biacore 8K, supernatant, analysis 1. The procedure, abridged:
as §1

The target in test [3] is T2, Recombinant human IL-23 receptor …. The experiment in a line: SPR Biacore 8K, supernatant, analysis 2. The procedure, abridged:
as §1

The target is the same in test [4]. Put plainly: SPR Biacore 8K, purified, analysis 1. On the procedure:
(§2) Affinity by SPR using Biacore 8K. Affinity measurements using Surface Plasmon Resonance (SPR) were performed using a Biacore 8K system (Cytiva). […] Approximately 9000-10000 RU (response units) of mAbs were immobilized. The kinetic experiments were performed at 25° C. in running buffer 1× of (HBS-P+ Buffer 10× (Cytiva #BR100671)+100 μg/ml BSA). To perform kinetic experiments, approximately 150 RU of mAbs were captured followed by injections of human IL-23R or rat IL-23R at concentrations ranging from 0.8 nM to 500 nM (in a 5-fold serial dilution). The association phase was monitored for 3 minutes at 50 μL/min, then followed by 30 minutes of buffer flow (dissociation phase). […] The collected data were processed using Biacore insight Evaluation software (Version 3.0.12.15655). The kinetic analysis of the data was performed using a Langmuir 1:1 binding model. The result for each mAb was reported in the format of Ka (On-rate), Kd (Off-rate) and KD (equilibrium dissociation constant).

The target is the same in test [5]. The experiment in a line: SPR Biacore 8K, purified, analysis 2. As to the method:
as §2

Bounds are passed on as bounds.

B1: I23RB166 (antibody, mouse IgG2a, kappa, V domains shown)
VH: DVQLQESGPGLVKPSQTVSLTCTVTGYSITNGNHWWNWIRQVSGSKLEWIGYIRSSGSTDSNPSLKSRISITRDTSKNQLFLQLNSVTAEDIATYYCARERLRLRWSYFDYWGQGTTLTVSS
VL: DIVMTQSHKFMSTSVGARVSITCKASQDVSTAVAWYQQKPGQSPKLLIYSASYRYTGVPDRFTGSGSGTDFTFTISSVQAEDLAVYYCQQHYSTPRTFGGGTKLEIKR
notes: mouse immunization; mouse IgG2a/kappa
In general, Kd refers to the constant that tells how readily two partners part at equilibrium. The koff is the rate constant with which the complex falls apart. As a reminder, the kon is a measure of how fast the partners come together. As to B1, the binding result in test [1] was “no binding (tested: 500 nM)”. Moreover, in test [2], the Kd is 43.1 nM, the off-rate constant (koff) was found to be 0.0193 s⁻¹ and the kon worked out at 447000 M⁻¹ s⁻¹. Also, in test [3], the equilibrium dissociation constant (Kd) was determined as 44.1 nM, the off-rate (koff) stood at 0.00942 s⁻¹ and the on-rate constant (kon) is 214000 M⁻¹ s⁻¹.

B2: I23RB156 (antibody, mouse IgG2a, kappa, V domains shown)
VH: QVQLKESGPGLVAPSQSLSITCTVSGFSLTSYAINWVRQPPGKGLEWLGVIWTGGGTNYNSVFKSRLSISKDNSKSQIFLKMISLQTDDTARYYCARNRDYSNYRWYFDVWGAGTTLTVSS
VL: DIVMTQSHKFMSTSVGDRVSITCKASQDVSTAVAWYQQKPGRSPKLLIYSAFYRYTGVPDRFTGSGSGTDFTFTIGSVQAEDLAVYYCQQHYSIPLTFGAGTKLELKR
notes: as for B1
B2: the binding result in test [1] is recorded as “no binding (tested: 500 nM)”. In test [2], the equilibrium dissociation constant (Kd) was 0.403 nM, the off-rate (koff) stood at 0.000218 s⁻¹ and the kon came to 542000 M⁻¹ s⁻¹. In addition, in test [3], the dissociation constant Kd came out at 0.588 nM, the koff worked out at 0.000259 s⁻¹ and the kon was 441000 M⁻¹ s⁻¹.

B3: I23RB150 (antibody, mouse IgG2a, kappa, V domains shown)
VH: QIQLVQSGPELKKPGETVKISCKASAYTFTNYGMNWVKQAPGKGLKWMGWIKTNTGEPTYAEEFKGRFAFSLETSASTAYLQINNLKNEDTATYFCARSRQLGLRYYFDYWGQGTTLTVSS
VL: DIVMTQSHKFMSTSVGGRVSITCKASQDVSTAVAWYQQKPGQSPRLLIYSASYRYTGVPDRFTGSGSGTDFTFTISSVQAEDLAVFYCQQHYSTPYTFGSGTRLEIKR
notes: as for B1
For the molecule B3, the binding result in test [1] is “no binding (tested: 500 nM)”. Further, in test [2], the dissociation constant (Kd) was 96.5 nM, the koff is 0.0329 s⁻¹ and the kon turned out to be 341000 M⁻¹ s⁻¹. In test [3], the dissociation constant (Kd) was found to be 112 nM, the off-rate constant (koff) turned out to be 0.0376 s⁻¹ and the on-rate (kon) was found to be 334000 M⁻¹ s⁻¹.

B4: I23RB160 (antibody, mouse IgG2a, kappa, V domains shown)
VH: QVQLKESGPDLVKPSQSLSLTCTVTGYSITSGYNWHWIRQFPGNKLEWMGYIHYSSGTIYNPSLKSRISITRDTSKNQFFLQLNSVTTEDTGTYYCARQLGLKAMDYWGQGTSVTVSS
VL: DIVMTQSHKFMSTSVGDRVSITCKASQDVRTAVAWYQQKPGQSPKLLIHSASYRYTGVPDRFTGSGSGTDFTFTISSVQVEDLAVYYCQQHYTTPYTFGSGTKLEIKR
notes: as for B1
Regarding B4, the binding result in test [1] was “no binding (tested: 500 nM)”. In addition, in test [2], the equilibrium dissociation constant (Kd) worked out at 16.9 nM, the koff is 0.00955 s⁻¹ and the on-rate (kon) was 567000 M⁻¹ s⁻¹. In addition, in test [3], the Kd was 13.8 nM, the koff was determined as 0.0142 s⁻¹ and the kon turned out to be 1.02e+06 M⁻¹ s⁻¹.

B5: I23RB148 (antibody, mouse IgG2a, kappa, V domains shown)
VH: DVQLQESGPDLVKPSQSLSLTCTVTGYSITSGYNWHWIRQFPGNKLEWMGYIHSSGTTNYSPSLRSRLSITRDTSKNQFFLQLNSVTTEDTATYYCTRQLGLKAMEYWGQGTTLTVSS
VL: DIVMTQSHKFMSTSVGDRVSLTCKASQEVRTAVAWYQQKPGQPPKLLIYSASYRYTGVPDRFTGSGSGTDFTFTIISVQAEDLAVYYCQQHYTTPYSFGSGTKLEIKR
notes: as for B1
On to B5, for which, in test [1], the binding result is on record as “no binding (tested: 500 nM)”. Moreover, in test [2], the dissociation constant (Kd) stood at 0.874 nM, the koff turned out to be 0.000459 s⁻¹ and the kon is 525000 M⁻¹ s⁻¹. In test [3], the dissociation constant Kd is 0.766 nM, the koff turned out to be 0.000382 s⁻¹ and the kon was found to be 498000 M⁻¹ s⁻¹.

B6: I23RB153 (antibody, mouse IgG2a, kappa, V domains shown)
VH: EVKLVESGGGLVQPGGSLKLSCAASGFTFSSDTMSWVRQTPEKRLELVAEISSNGGSTYHIDTVKGRFTISRDNAKNTLYLQMSSLKSEDTAMYYCASPGYPWFAYWGQGTTVTVSA
VL: DIVMTQSHRFMSTSVGERVSITCKASQDVGNAVAWYQQKPGQSPKLLIYWTSTRHNGVPDRFTGSGSGTDFTLTISNVQGEDLADYFCQQYNRYPLTFGSGTKLEIKR
notes: as for B1
Consider B6, for which the Kd in test [1] was 92.1 nM; in test [2], 1.64 nM; in test [3] it was 2.33 nM. For the same molecule, the koff in test [1] turned out to be 0.00548 s⁻¹; in test [2], 0.000226 s⁻¹; in test [3], 0.000318 s⁻¹. Moreover, the kon in test [1] is 59500 M⁻¹ s⁻¹; in test [2] it was 138000 M⁻¹ s⁻¹; in test [3] it was 137000 M⁻¹ s⁻¹.

B7: I23RB144 (antibody, mouse IgG2a, kappa, V domains shown)
VH: EVQLQQSGPELVKPGASVKMSCKASGYTFTSYIIHWVKQKPGQGLEWIGYIDPYNDDTKYNEKFKGKATLTSDKSSSTAYMEFSSLTSEDSAVYYCARLGSINYYDGSYFDYWGQGTSVTVSS
VL: DIVMTQSPLTLSVIIGQSASISCKSSQSLLDSDGKTYLNWLLQRPGQSPKRLMYLVSKLDSGVPDRFTGSGSGTDFTLKISRVEAEDLGVYYCWQGIHFPLTFGSGTRLEIKR
notes: as for B1
Regarding B7, in test [1], the binding result is listed as “no binding (tested: 500 nM)”. Besides, in test [2], the Kd was 30.6 nM, the koff came out at 0.00272 s⁻¹ and the on-rate constant (kon) was determined as 89000 M⁻¹ s⁻¹. In test [3], the Kd amounted to 53.3 nM, the koff is 0.00277 s⁻¹ and the on-rate (kon) is 52000 M⁻¹ s⁻¹.

B8: I23RB162 (antibody, mouse IgG2a, kappa, V domains shown)
VH: EFQLQQSGPELVKPGASVKMSCKASGYTFTNYVMHWVKQKPGQGLEWIGYINPYNDGTKYNEKFKGKATLTSDKSSSTAYMELSSLTSEDSAVYYCARSRTGTRWYFDVWGAGTTVTVSS
VL: DIVMTQSQKFMSTSVGDRVSVTCKASQNVGTNVAWYQQKPGQSPKALIYSASYRYSGVPDRFTGSGSGTDFTLTISNVQSEDLAEYFCQQYNSYPFTFGSGTKLEIKR
notes: as for B1
As for B8, the binding result in test [1] is on record as “no binding (tested: 500 nM)”. Also, in test [2], the dissociation constant Kd came to 44.6 nM, the off-rate (koff) came to 0.0237 s⁻¹ and the kon is 531000 M⁻¹ s⁻¹. In test [3], the dissociation constant (Kd) was found to be 62.2 nM, the koff worked out at 0.0216 s⁻¹ and the kon was 347000 M⁻¹ s⁻¹.

B9: I23RB42 (antibody, mouse IgG2a, kappa, V domains shown)
VH: EVQLQQSGAELVKPGASVKISCKASGYSFTDYIMNWVKQSHGKSLEWIGNINPYFGFTSYNQEFKGKATLTVDKSSSTAYMLLNSLTSEDSAVYYCSRGSYYGYETFFDYWGQGTTLTVSS
VL: DIVLTQTAPSVPVTPGESVSISCRSSKSLLHSNGNTYLYWFLQRPGQSPQLLIYRMSNLASGVPDRFSGSGSGTAFTLRISRVEAEDVGVYYCMQHLEYPYTFGSGTRLEIKR
notes: as for B1
With B9, the dissociation constant (Kd) stood at 0.0725 nM in test [4], 0.117 nM in test [5] and 0.108 nM in test [3]. Moreover, the off-rate constant (koff) in test [4] came out at 5.76e-05 s⁻¹; in test [5] it was 6.25e-05 s⁻¹; in test [3] it was 6.29e-05 s⁻¹. Also, the kon came out at 795000 M⁻¹ s⁻¹ in test [4], 535000 M⁻¹ s⁻¹ in test [5] and 582000 M⁻¹ s⁻¹ in test [3].

B10: I23RB155 (antibody, mouse IgG2a, kappa, V domains shown)
VH: QVQLKESGPGLVKPSQSLSLTCSVTGYSITSGHSWNWIRQFPGNKLEWMGYISYDGTNDYNPSLKNRISITRDTSKNQFFLNLNSVTTEDTVTYYCARGGGYYGGTYRVFADWGQGTTLTVSS
VL: QIVLSQSPASLAVSLGQRATISCRTSESVDTYGNSFIYWYQQKPGQPPKLLIYRASNLESGIPARFSGSGSRTDFTLTINPVEADDVATYYCQQGNKDPYTFGSGTKLEMKR
notes: as for B1
Consider B10, for which the binding result in test [1] is “no binding (tested: 500 nM)”. Further, in test [2], the Kd is less than 0.0784 nM, the off-rate constant (koff) is less than 2.89e-05 s⁻¹ and the kon was found to be 369000 M⁻¹ s⁻¹. In test [3], the dissociation constant Kd was less than 0.121 nM, the koff is less than 2.89e-05 s⁻¹ and the on-rate (kon) came to 239000 M⁻¹ s⁻¹.
